Source: patent US20260234242A1 (HAINAN SIMCERE ZAIMING PHARMACEUTICAL, published 2026)
One block for each binder: values may come before it.

Key:
[1] = biological target: T1, human CDH6 on tumor cells (OVCAR3 cells, PA-1 cells) (human, UniProt P55285 54-790); assay: FACS, OVCAR3 cells
T1 sequence: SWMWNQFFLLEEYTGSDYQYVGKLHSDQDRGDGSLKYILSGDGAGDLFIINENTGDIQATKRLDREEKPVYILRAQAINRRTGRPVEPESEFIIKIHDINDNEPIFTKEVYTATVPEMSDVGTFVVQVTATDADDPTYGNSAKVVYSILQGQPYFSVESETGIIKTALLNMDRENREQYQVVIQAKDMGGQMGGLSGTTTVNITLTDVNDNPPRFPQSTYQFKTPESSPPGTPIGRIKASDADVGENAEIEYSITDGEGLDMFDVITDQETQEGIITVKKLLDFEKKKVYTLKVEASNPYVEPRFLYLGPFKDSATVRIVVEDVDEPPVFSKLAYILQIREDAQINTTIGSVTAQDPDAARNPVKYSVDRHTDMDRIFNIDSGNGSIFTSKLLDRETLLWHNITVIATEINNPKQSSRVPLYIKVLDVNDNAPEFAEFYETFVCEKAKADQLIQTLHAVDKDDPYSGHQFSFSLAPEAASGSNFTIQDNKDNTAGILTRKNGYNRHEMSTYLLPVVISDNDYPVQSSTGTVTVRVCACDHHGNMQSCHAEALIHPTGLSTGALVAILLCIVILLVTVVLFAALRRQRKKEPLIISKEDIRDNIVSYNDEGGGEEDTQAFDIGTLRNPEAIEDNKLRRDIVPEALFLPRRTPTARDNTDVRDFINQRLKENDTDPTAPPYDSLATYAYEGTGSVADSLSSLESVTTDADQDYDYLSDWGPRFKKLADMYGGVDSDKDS
Experimental: OVCAR3 cells with high expression of CDH6 and PA-1 cells with moderate expression of CDH6 were used to detect the binding activity of the antibodies to the cells. […] The cells were washed once with PBS, counted, resuspended to 2×10⁶ cells/mL in an FACS buffer (PBS+2% FBS), and then added to a 96-well plate at 50 μL/well. The chimeric antibodies were diluted with FACS buffer (PBS+2% FBS) and added to the 96-well plate at 50 μL/well, and the plate was incubated at 4° C. for 1 h. […] The dilution was added to the 96-well plate at 50 μL/well, and the plate was incubated at 4° C. for 1 h. After the plates were centrifuged and washed 2 times with PBS, the cells were resuspended in an FACS buffer. The mean fluorescence intensity (MFI) was measured using FACS Canton II (BD). Analysis was performed by the GraphPad Prism software, data were fitted, and EC50 values were calculated. The chimeric antibodies tested had strong binding to both OVCAR3 cells and PA-1 cells.
According to the above sequences, heavy chain (HC) and light chain (LC) plasmids were constructed (the nucleic acid sequences encoding the VH and VL of the antibodies were recombined into an expression vector carrying a signal peptide (SEQ ID NO: 132, […]) and a heavy chain constant region/light chain constant region sequence to obtain recombinant plasmids expressing VH-CH1-Fc/VL-CL). According to the expression and purification methods in Example 2, the hCDH6-1 humanized antibodies were obtained, and the binding activity of the humanized antibodies was detected by ELISA and FACS (see 2.2 and 2.3 for the method).

[2] = biological target: T2, his-tagged human CDH6 extracellular region protein (hCDH6 ECD-his) (human, UniProt P55285 19-615); assay: ELISA, coated antigen
T2 construct: also called Human CDH6-his; hCDH6-his; not shown: his tag
T2 sequence: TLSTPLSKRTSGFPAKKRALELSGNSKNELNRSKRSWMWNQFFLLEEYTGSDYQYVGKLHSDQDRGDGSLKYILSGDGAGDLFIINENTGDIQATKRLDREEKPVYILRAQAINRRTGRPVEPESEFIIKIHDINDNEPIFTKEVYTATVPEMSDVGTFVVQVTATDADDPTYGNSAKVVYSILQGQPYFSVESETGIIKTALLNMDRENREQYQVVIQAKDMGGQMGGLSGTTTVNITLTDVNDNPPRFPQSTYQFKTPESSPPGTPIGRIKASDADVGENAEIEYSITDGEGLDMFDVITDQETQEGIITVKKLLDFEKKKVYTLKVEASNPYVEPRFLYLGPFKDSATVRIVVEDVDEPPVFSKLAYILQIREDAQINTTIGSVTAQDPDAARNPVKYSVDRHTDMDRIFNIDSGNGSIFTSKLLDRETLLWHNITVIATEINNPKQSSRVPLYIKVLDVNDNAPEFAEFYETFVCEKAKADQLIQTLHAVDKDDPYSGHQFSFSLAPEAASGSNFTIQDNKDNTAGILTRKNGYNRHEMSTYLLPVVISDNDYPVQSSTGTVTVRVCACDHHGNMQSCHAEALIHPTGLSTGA
How it was run: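 Plates coated overnight at 4 °C with his-tagged CDH6 ECD (human; also cyno and murine, residues 19-615) at 1 μg/mL. Chimeric antibody dilutions bound 2 h at 37 °C; TMB read-out at OD450 nm, EC50 from fitted curves.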

EC50 [1]: 0.17 nM | Max MFI [1]: 14800 MFI
B1: hCDH6-1-H2L3 (antibody, V domains shown)
VH: EVQLVQSGAEVKKPGSSVKVSCKASGYTFTNYWMHWVRQAPGQGLEWMGDIDPSHSETHYTQKFKDRVTITVDKSTSTAYMELSSLRSEDTAVYYCARGDLGRFDYWGQGTTVTVSS
VL: DIQMTQSPSSLSASVGDRVTITCRASESVSIHGTHLMHWYQQKPGKPPKLLIYAASNLESGVPSRFSGSGSETDFTFTISSLQPEDIATYYCQQSFEDPWTFGGGTKVEIK
notes: Humanized

EC50 [2]: 0.026 nM | Max OD450 [2]: 1.97 OD450
B2: hCDH6-6-H2L2 (antibody, V domains shown)
VH: EVQLVQSGAEVKKPGASVKVSCKASGYTFTDYYMAWVRQAPGQGLEWMGYIFPNSGGTDYSQKFKGRVTLTVDKSTSTVYMELSSLRSEDTAVYYCARELGADYGDYYAMDHWGQGTTVTVSS
VL: DIQMTQSPSSLSASVGDRVTITCRASENIDSYLAWYQQKPGKSPKLLVYSATLLADGVPSRFSGSGSGTDYTLTISSLQPEDFATYYCQHYYRTPPTFGQGTKLEIK
notes: Humanized

Further lines, the binder ahead of its results:

B3: CHI-CDH6-1 (antibody, human IgG1, kappa, V domains shown)
VH: QVQLQQPGAELVRPGSSVKLSCKASGYTFTNYWMHWVKQRPIEGLEWIGDIDPSHSETHYTQKFKDKATLTVDKSSSTAYMQLSSLTSEDSAVYYCARGDLGRFDYWGQGTTLTVSS
VL: DIVLTQSPASLAVSLGQRATISCRASESVSIHGTHLMHWYQQKSGQPPKLLIYAASNLESGVPARFSGSGSETDFTFNIHPVEEEDAATYFCQQSFEDPWTFGGGTKLEIKR
notes: also called CHI-hCDH6-1; CH1-CDH6-1
EC50 [1]: 0.194 nM | Max MFI [1]: 14900 MFI

B4: CHI-CDH6-6 (antibody, human IgG1, kappa, V domains shown)
VH: EVQLQQSGPELVKPGDSVKMSCKASGYTFTDYYMAWVRQSHRKSLEWIGYIFPNSGGTDYSQKFKGKATLTVDKSSSTVYMELHSLTSEDSAVYYCARELGADYGDYYAMDHWGQGTSVSVSS
VL: DIQMTQSPASLSASVGETVTITCRASENIDSYLAWYQQKQGKSPQLLVYSATLLADGVPSRFSGSGSGTQYSLKINSLKSEDVARYYCQHYYRTPPTFGSGTKLEIKR
notes: also called CHI-hCDH6-6; chimeric antibody of murine CDH6-6
EC50 [2]: 0.028 nM | Max OD450 [2]: 2.02 OD450
